Experimental data: patent US20150147384A1 (MIT, published 2015)
No end group written: not given here.

Biological target: P-glycoprotein (UniProt P08183 1-1280)
Assay: cell-based or functional assay

Chain of P-glycoprotein (P08183 whole entry): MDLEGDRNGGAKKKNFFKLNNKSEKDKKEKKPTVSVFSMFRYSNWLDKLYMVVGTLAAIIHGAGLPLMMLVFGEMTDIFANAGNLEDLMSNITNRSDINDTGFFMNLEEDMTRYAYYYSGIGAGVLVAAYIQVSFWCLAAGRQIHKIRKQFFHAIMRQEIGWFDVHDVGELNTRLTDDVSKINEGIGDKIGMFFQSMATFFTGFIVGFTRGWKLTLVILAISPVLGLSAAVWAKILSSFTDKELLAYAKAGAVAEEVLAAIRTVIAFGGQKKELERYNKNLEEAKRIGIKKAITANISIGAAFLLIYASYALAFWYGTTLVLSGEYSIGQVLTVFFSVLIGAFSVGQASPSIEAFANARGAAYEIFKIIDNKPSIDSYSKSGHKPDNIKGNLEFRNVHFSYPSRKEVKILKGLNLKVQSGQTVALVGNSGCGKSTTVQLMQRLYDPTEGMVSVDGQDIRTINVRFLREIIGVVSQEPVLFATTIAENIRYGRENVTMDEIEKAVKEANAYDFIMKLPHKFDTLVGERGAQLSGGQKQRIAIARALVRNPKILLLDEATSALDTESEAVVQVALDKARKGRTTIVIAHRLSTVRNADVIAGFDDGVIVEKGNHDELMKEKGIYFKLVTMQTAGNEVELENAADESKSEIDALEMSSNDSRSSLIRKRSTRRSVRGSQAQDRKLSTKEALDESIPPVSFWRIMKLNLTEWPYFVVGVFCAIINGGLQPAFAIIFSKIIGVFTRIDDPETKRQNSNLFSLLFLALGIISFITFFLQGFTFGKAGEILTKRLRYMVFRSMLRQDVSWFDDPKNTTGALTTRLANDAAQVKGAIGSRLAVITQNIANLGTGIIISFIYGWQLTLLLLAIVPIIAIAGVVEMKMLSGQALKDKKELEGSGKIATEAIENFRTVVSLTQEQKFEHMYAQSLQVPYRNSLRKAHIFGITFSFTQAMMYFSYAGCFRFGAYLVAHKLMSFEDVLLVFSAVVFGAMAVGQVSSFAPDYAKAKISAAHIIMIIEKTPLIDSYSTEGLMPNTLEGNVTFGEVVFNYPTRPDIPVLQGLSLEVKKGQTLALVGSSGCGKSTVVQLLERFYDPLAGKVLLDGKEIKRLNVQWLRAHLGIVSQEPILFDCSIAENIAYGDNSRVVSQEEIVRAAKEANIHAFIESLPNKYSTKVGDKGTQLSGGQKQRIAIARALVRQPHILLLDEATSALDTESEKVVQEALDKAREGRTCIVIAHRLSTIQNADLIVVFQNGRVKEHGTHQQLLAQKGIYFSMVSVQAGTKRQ

Binder | Enhancement ratio of Rhodamine-123 transport against the control, peptide 0.02 mg/ml [ratio] | Enhancement ratio of Rhodamine-123 transport against the control, peptide concentration given as 2 mg/ml (caption: 0.2 mg/mL) [ratio] | Papp of Rhodamine-123 through a Caco-2 monolayer (basolateral to apical), peptide 0.02 mg/ml [×10⁻⁶ cm/s] | Papp of Rhodamine-123 through a Caco-2 monolayer (basolateral to apical), peptide concentration given as 2 mg/ml (caption: 0.2 mg/mL) [×10⁻⁶ cm/s]
KAAAAAA-NH2 [KAAAAAA-CONH2] | 1 | 1 | 10.8 | 10.5
DAAAAAA-OH [DAAAAAA-COOH] | 1.2 | 1.4 | 13 | 15.1

Next, values leading:

Enhancement ratio of Rhodamine-123 transport against the control, peptide 0.02 mg/ml [ratio] | Enhancement ratio of Rhodamine-123 transport against the control, peptide concentration given as 2 mg/ml (caption: 0.2 mg/mL) [ratio] | Papp of Rhodamine-123 through a Caco-2 monolayer (basolateral to apical), peptide 0.02 mg/ml [×10⁻⁶ cm/s] | Papp of Rhodamine-123 through a Caco-2 monolayer (basolateral to apical), peptide concentration given as 2 mg/ml (caption: 0.2 mg/mL) [×10⁻⁶ cm/s] | Binder
0.9 | 1.7 | 10 | 18.2 | Ac-AAAAAAK-NH2 [acetyl-AAAAAAK-CONH2]
0.9 | 1.7 | 10.1 | 18.4 | Ac-AAAAAAD-OH [acetyl-AAAAAAD-COOH]
